# Article PMC9324194
# Biological target: Cy3-APE1 (human) (UniProt P27695)
# Experiment: FRET titration
# Conditions: N1 = tetrahydrofuran (THF), EMSA: 2 uM protein and DNA, 20 mM potassium phosphate pH 7.0, 50 mM NaCl, 5 mM MgCl2, 2 mM DTT, 0.01% Tween-20, 30 min room temperature, gel at 4 °C
# Chain of UniProt P27695 (P27695 whole entry): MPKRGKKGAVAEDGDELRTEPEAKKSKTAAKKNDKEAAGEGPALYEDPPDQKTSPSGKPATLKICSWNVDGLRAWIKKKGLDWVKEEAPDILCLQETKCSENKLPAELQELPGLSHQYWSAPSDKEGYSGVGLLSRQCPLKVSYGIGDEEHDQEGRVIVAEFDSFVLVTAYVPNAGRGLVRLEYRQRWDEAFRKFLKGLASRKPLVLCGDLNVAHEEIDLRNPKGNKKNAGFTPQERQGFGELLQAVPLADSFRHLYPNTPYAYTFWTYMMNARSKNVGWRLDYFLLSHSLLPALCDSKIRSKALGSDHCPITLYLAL
sequence,measurement,value
NCGGTCGATCGTAAGATCGACCGTGCGCTGGAGCTTGCTCCAGCGC [Cy5-P (Cy5-labelled product)],Kd,5 nM
